Measurements from patent US20130022608A1 (POMONA RICERCA S R L, published 2013).

Key:
Test in all cases: cell-based or functional assay
[1] = biological target: Hemagglutinin of A/Port Chalmers/1/73 (H3N2) (Influenza A virus A/Port Chalmers/1/73 …)
[2] = biological target: Hemagglutinin of A/Hong Kong/8/68 (H3N2) (Influenza A virus A/Hong Kong/8/68 …)
[3] = biological target: Hemagglutinin of A/Victoria/3/75 (H3N2) (Influenza A virus A/Victoria/3/75 (H3N2), UniProt P03435 17-567)
[4] = biological target: H3N2 HA (A/Aichi/2/68), wild type (Influenza A virus A/Aichi/2/68 (H3N2), UniProt Q91MA7 17-566)
[5] = biological target: Hemagglutinin of A/Wisconsin/67/2005 (H3N2) (Influenza A virus A/Wisconsin/67/2005 …)
[6] = biological target: Hemagglutinin of A/NC/20/99 (H1N1) (Influenza A virus A/NC/20/99 (H1N1))
[7] = biological target: Hemagglutinin of A/Mal/302/54 (H1N1) (Influenza A virus A/Mal/302/54 (H1N1))
[8] = biological target: Hemagglutinin of A/WS/33 (H1N1) (Influenza A virus A/WS/33 (H1N1), UniProt P03454 18-565)
[9] = biological target: A/PR/8/34 (H1N1) hemagglutinin (HA), wild type (Influenza A virus A/PR/8/34 (H1N1), UniProt P03452 18-565)
[10] = biological target: Hemagglutinin of A/Milan/UHSR1/2009 (H1N1) (Influenza A virus A/Milan/UHSR1/2009 …)
[11] = biological target: Hemagglutinin of A/Swine/Parma/1/97 (H1N1) (Influenza A virus A/Swine/Parma/1/97 …)

Binder | IC50, micro-neutralization assay on MDCK cells [1] | IC50, micro-neutralization assay on MDCK cells [2] | IC50, micro-neutralization assay on MDCK cells [3] | IC50, micro-neutralization assay on MDCK cells [4] | IC50, micro-neutralization assay on MDCK cells [5] | IC50, micro-neutralization assay on MDCK cells [6] | IC50, micro-neutralization assay on MDCK cells [7] | IC50, micro-neutralization assay on MDCK cells [8] | IC50, micro-neutralization assay on MDCK cells [9] | IC50, micro-neutralization assay on MDCK cells [10] | IC50, micro-neutralization assay on MDCK cells [11]
Fab PN-SIA28 (Fab, V domains shown) VH: LEESGGGVVQPGRSLRLSCAASGFPFSSYGMHWVRQAPGKGLEWVAGVSYDGSYKYYADSVKGRFTISRDSSKSTLYLQMNSLRPEDTAVYYCARPSAIFGIYIILNGLDVWGQGTTVTVSS VL: ELTQSPSSVSASVGDRVTITCRATQGISSWLAWYQQKPGKPPKLLIFGASSLQSGVPSRFSGSGSGTDFTLTISSLQPEDFATYFCQQAHSFPLTFGGGTKVEIK | 13.2 µg/mL | 20 µg/mL | > 20 µg/mL | 20 µg/mL | > 20 µg/mL | 7 µg/mL | 0.8 µg/mL | 2.9 µg/mL | 2 µg/mL | 0.3 µg/mL | 3.9 µg/mL
IgG PN-SIA28 (antibody, V domains shown) VH: LEESGGGVVQPGRSLRLSCAASGFPFSSYGMHWVRQAPGKGLEWVAGVSYDGSYKYYADSVKGRFTISRDSSKSTLYLQMNSLRPEDTAVYYCARPSAIFGIYIILNGLDVWGQGTTVTVSS VL: ELTQSPSSVSASVGDRVTITCRATQGISSWLAWYQQKPGKPPKLLIFGASSLQSGVPSRFSGSGSGTDFTLTISSLQPEDFATYFCQQAHSFPLTFGGGTKVEIK | 1.8 µg/mL | 0.8 µg/mL | 1.2 µg/mL | 0.6 µg/mL |  |  | 0.64 µg/mL | 1.3 µg/mL | 1.2 µg/mL | 0.2 µg/mL | 2 µg/mL
